For test [1], the target named is T1, human Fes SH2-kinase unit (residues I448 to the C terminus), unphosphorylated (human, UniProt P07332-1 448-822).
T1 construct: Fes tyrosine kinase, human, NP_001996; linker N terminal to the SH2 domain, SH2 domain and C-terminal kinase domain; residues I448 to the C terminus; Crystallised with staurosporine; also called SH2-kinase polypeptide; unphosphorylated Fes; source: E. coli BL21(DE3)-R3, coexpressed with YopH tyrosine phosphatase, purified
The test is described as follows: crystal structure; sitting drops; Fes SH2-kinase with staurosporine (1 mM) and peptide Ac-IYESL (250-300 uM); form II from 20% PEG 3350, 0.1 M sodium malate; form III from 30% mPEG 2000, 0.15 M NaBr. The note with it: both partners purified.

The target in test [2] is T2, human Fes SH2-kinase unit (residues I448 to the C terminus), autophosphorylated on Y713 (human, UniProt P07332-1 448-822, phosphotyrosine at 713).
T2 construct: Fes tyrosine kinase, human, NP_001996; Crystallised with staurosporine; also called pY713-Fes; phosphorylated Fes; source: E. coli BL21(DE3)-R3, coexpressed with YopH, purified; autophosphorylated in vitro, purified by gel filtration
T2 sequence (P07332 448-822): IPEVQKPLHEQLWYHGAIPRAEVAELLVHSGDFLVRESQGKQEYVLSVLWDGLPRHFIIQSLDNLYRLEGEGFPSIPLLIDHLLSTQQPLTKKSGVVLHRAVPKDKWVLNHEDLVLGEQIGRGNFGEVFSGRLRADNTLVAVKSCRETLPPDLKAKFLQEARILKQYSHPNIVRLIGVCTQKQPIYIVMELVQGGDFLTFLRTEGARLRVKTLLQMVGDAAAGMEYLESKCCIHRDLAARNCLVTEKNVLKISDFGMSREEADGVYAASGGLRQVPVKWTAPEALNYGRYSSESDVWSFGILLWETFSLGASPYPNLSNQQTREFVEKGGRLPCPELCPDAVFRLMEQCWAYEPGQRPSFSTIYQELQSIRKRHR
The test is described as above. As to conditions: both partners purified.

No end group written: not given here.

T1 sequence (P07332 448-822): as above

B1: Fes kinase consensus substrate peptide Ac-IYESL (peptide)
peptide: Ac-IYESL
notes: consensus substrate peptide of the Fes kinase, derived from peptide library and array screens; also called consensus peptide; source: synthetic peptide
Consider B1, for which the binding result in test [1] and in test [2] was “binds” each time.
